Test results as given in publication PMC10029098.

B1: hairpin 1e (peptide)
chain: RWVARRDYRFDMGFDYWVWE
B2: peptide 1c (peptide)
chain: RWCARRDYRFDMGFDYWGWE

How the values were obtained:
[1] = biological target: PD1 (Homo sapiens), Q15116; assay: ELISA PD1/PDL1 blocking; settings: modification not given
[2] = biological target: PD1 (Homo sapiens), Q15116; assay: competitive binding kinetics; settings: modification not given

Chain of PD1 (Homo sapiens), Q15116 (Q15116 25-170): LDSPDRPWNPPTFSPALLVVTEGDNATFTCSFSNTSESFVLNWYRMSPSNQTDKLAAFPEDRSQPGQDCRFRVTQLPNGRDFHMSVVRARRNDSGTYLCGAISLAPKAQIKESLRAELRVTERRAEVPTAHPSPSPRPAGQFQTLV

| Binder | IC50 [1] [nM] | Ki [2] [nM] |
| --- | --- | --- |
| B1 | 290 | 41 |
| B2 | 3700 |  |
